Measurements as given in US20110217237A1 (AbbVie / Abbott, published 2011).
Where two headings read alike, the source gives them in different places.

B1: 14A11 rat anti-DLL4 monoclonal antibody (antibody, rat IgG2a, V domains shown)
VH: EVQLQQSGPELAKPGSSVKISCKASGYTFTNSYISWIKQTTGQGLEYVGYINTGSGGADYNEKFKGKATLTVDKSSRTAFMQLSSLTPGDSAVYYCAKSILLGSTCYFDYWGQGVLVTVSS
VL: NTVLTQSPALAVSLGQRVTISCKASRSVSSPMYSYIYWYQQKPGQQPKLLIYRASTLASGVPARFSGSGSGTDFTLNIDPVEADDIATYFCQQSWSDPFTFGSGTKLEIKR
notes: rat IgG2a/K hybridoma mAb; also called MC13-14A11.3A4
B2: 38H12 rat anti-DLL4 monoclonal antibody (antibody, rat IgG2a, V domains shown)
VH: EVQLVESGGGLVQPGRSLKLSCAASGFTFSNYGMYWIRQAPTKGLQWVAFISHGGGITYYRDSVKGRFTISRDNAKSTLYLQMDSLRSEDTATYHCAALNWELGIDYWGQGVMVTVSS
VL: DIQMTQSPASLSASLGETISIECRASEDIYSNLAWYQKKSGKSPQLLIYAANRLQDGVPSRFSGSGSGTQYSLKISGMQPEDEGDYFCLQGSKFPLTFGSGTKLEIKR
notes: rat IgG2a/k hybridoma mAb; also called MC10-38H12.2G8; 38H12 rat mAb
B3: 37D10 rat anti-DLL4 monoclonal antibody (antibody, rat IgG2a, V domains shown)
VH: AVQLVESGGGLVQPKESLKISCAASGFTFSNAAMYWVRLAPGKGLEWVARIRTKPNNYATYYAESVKGRFTISRDDSKSMVYVQMDNLKTEDTAMYYCTAAPWRDSYAHVYWGQGVMVTVSS
VL: DIQMTQSPPVLSASVGDRVTLSCKASQNIHKNLDWYQQKHGDAPKLLIYYTDHLQTGVPSRFSGSGSATDYTLTISSLQPEDVATYYCYQYNGGPFTFGSGTKLEIKR
notes: rat IgG2a/k hybridoma mAb; also called 40B10; 37D10 = 40B10
B4: 1A11 rat anti-DLL4 monoclonal antibody (antibody, rat IgG1, V domains shown)
VH: EVQLVESGGGLVQPGRSMKLSCAASGFTFRNFPMAWVRQAPTRGLEWVATISSSDGTTYYRDSVKGRFTISRDNAKSTLYLQVNSLRSEDTATYYCSRGYYNSPFAYWGQGTLVTVSS
VL: DIQMTQSPASLSASLGETVTIECRASEDIYSNLAWYQQKPGNSPQLLIFDTNNLADGVPSRFSGSGSGTQSSLKINSLQSEDVASYFCQQYNNYPPTFGGGTKLELKR
notes: rat IgG1/K hybridoma mAb; also called MC13-1A11.2E1; 1A11 (rat mAb)

Columns and labels:
[1] = target: T1, human DLL4, full length, on cells (human, UniProt Q9NR61 27-685); experiment: FACS, DLL4 cells
T1 construct: also called huDLL4 cells; human DLL4-293G
T1 sequence (Q9NR61 27-685 limits assumed): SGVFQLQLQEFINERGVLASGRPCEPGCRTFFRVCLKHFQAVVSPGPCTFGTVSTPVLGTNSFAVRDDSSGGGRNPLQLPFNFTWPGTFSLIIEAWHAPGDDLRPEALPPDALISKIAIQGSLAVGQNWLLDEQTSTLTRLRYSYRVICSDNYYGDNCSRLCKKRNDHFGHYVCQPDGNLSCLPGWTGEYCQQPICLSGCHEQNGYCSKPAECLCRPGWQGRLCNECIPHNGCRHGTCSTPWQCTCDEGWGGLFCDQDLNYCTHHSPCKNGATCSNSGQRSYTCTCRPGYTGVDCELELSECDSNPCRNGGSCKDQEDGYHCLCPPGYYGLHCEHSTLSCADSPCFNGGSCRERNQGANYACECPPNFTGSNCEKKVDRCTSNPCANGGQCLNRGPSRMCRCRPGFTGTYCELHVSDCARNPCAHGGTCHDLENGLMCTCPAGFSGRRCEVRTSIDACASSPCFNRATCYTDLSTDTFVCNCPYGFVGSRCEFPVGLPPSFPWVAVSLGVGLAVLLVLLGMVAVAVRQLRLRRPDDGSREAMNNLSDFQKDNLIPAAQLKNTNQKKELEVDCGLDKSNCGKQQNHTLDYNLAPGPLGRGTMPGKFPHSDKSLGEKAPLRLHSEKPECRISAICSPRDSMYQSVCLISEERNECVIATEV
Protocol: (§1) Stable cell lines overexpressing cell-surface DLL4 were harvested from tissue culture flasks, washed four times and resuspended in phosphate buffered saline (PBS) containing 1% bovine serum albumin and 1 mM CaCl₂ (FACS buffer). 1.5×10⁵ cells were incubated with antibodies at various concentrations in FACS buffer for 60 minutes on ice. […] Following an incubation on ice (4° C., 60 minutes), cells were washed three times and resuspended in FACS buffer. Fluorescence was measured using a Becton Dickinson FACSCalibur-HTS (Becton Dickinson, San Jose, Calif., US). Data were analyzed using Graphpad Prism software and EC₅₀ values were reported as the concentration of antibody to achieve 50% of maximal DLL4 antibodies binding to DLL4 expressing cells. […]

mouse DLL4 on cells [2] = target: T2, mouse DLL4 on cells (mouse, UniProt Q9JI71 27-686); experiment: FACS, DLL4 cells
T2 construct: whole, on cells; also called mouse DLL4-293G; mu DLL4 cells
T2 sequence (Q9JI71 27-686): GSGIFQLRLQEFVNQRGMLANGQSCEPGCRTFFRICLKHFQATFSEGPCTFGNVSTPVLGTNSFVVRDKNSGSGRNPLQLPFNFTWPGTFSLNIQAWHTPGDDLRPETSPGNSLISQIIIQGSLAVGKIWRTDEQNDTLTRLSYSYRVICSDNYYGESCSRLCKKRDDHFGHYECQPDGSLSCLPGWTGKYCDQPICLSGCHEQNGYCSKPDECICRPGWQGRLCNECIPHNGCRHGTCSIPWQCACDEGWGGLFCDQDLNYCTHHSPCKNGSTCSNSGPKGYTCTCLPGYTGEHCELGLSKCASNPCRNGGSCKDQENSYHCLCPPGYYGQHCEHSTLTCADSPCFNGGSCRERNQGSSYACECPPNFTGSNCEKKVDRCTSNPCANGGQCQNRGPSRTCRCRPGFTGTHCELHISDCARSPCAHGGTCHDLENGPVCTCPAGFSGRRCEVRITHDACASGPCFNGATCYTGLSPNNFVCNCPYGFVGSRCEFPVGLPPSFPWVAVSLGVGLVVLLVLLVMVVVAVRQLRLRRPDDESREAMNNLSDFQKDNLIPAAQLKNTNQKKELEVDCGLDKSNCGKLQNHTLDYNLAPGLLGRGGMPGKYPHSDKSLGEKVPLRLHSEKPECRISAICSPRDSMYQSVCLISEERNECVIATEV
Protocol: as §1

[3] = target: T1, human DLL4, full length, on cells; experiment: cell-based or functional assay
[4] = target: T3, mouse DLL4 extracellular domain (mouse, UniProt Q9JI71 27-532); experiment: competition ELISA: biotin-DLL4 ECD to coated huNotch-1
T3 construct: extracellular domain; also called muDLL4 ECD; murine DLL4
T3 sequence (Q9JI71 27-532): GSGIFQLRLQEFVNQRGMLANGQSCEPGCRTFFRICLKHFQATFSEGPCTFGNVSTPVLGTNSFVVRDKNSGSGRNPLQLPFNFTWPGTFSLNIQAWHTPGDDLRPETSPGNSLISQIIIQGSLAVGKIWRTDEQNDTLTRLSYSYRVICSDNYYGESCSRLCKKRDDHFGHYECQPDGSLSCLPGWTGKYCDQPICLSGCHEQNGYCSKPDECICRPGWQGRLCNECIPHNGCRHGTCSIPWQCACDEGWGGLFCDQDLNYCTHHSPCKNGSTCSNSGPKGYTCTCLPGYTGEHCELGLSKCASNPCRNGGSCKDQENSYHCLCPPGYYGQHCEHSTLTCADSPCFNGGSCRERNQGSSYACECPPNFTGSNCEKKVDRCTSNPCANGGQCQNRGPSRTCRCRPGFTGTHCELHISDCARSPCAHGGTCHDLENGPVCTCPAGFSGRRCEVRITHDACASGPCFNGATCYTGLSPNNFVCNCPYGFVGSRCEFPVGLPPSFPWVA
Protocol: (§2) Plates were then washed 3 times with wash buffer (PBS, 0.05% Tween-20) and blocked with 200 μl/well blocking buffer (D-PBS, 1% BSA, 1 mM CaCl₂, 0.05% Tween-20) for 1 hour at 25° C. While blocking, biotin labeled DLL4 extracellular domain (14 nM) was mixed with antibody (30 pM-66 nM, 3-fold serial dilution in blocking buffer) for 1 hour at 25° C. with shaking. Assay plates were washed after blocking, and incubated with DLL4/antibody mixtures (100 μl/well, 1 hour at 25° C. with shaking). Plates were washed again and 100 μl/well streptavidin conjugated with HRP (Fitzgerald #65R-S104PHRPx, diluted 1:5,000 in blocking buffer) was added for 1 hour at 25° C. with shaking. After a final wash, plates were developed using 100 μl/well substrate (TMB Sigma #T8665), and the reaction was stopped using 100 μl/well 1N HCl, and the absorbance was read at 450 nm. Data were analyzed using Graphpad Prism software and IC₅₀ values were reported as the concentration of antibody to achieve 50% reduction of DLL4 bound to Notch1.
(§3) Further characterization determined 37D10 and 40B10 were identical rat mAbs.

[5] = target: T4, cynomolgus monkey DLL4 extracellular domain (cynomolgus monkey); experiment: SPR (Biacore)
T4 construct: extracellular domain; also called cynoDLL4 ECD; Cyno DLL4
Protocol: (§4) The BIACORE® surface plasmon resonance assay (Biacore, Inc., Piscataway, N.J., US) determines the affinity of antibodies with kinetic measurements of on-rate and off-rate constants. Binding of DLL4 antibodies to a purified recombinant DLL4 extracellular domain (ECD) was determined by surface plasmon resonance-based measurements with a Biacore® instrument (either a Biacore 2000, Biacore 3000, or Biacore T100; GE Healthcare, Piscataway, N.J., US) using running buffer HBS-EPB (10 mM HEPES [pH 7.4], 150 mM NaCl, 3 mM EDTA, 0.1 mg/ml BSA and 0.005% surfactant P20) at 25° C. For example, approximately 9000 RU of goat anti-human Fc specific polyclonal antibody (Thermo Fisher Scientific Inc., Rockford, Ill., US) diluted in 10 mM sodium acetate (pH 4.5) is directly immobilized across a CMS research grade biosensor chip using a standard amine coupling kit according to manufacturer's instructions and procedures at 25 μg/ml. Unreacted moieties on the biosensor surface were blocked with ethanolamine. For kinetic analysis, rate equations derived from the 1:1 Langmuir binding model were fitted simultaneously to multiple antigen injections (using global fit analysis) with the use of Scrubber 2 (BioLogic Software), Biacore Biaevaluation 4.0.1 software or Biacore T100 Evaluation software. Purified antibodies were diluted in running buffer for capture across goat anti-human Fc reaction surfaces. Antibodies to be captured as a ligand (1 μg/ml) were injected over reaction matrices at a flow rate of 10 μl/min. During the assay, all measurements were referenced against the capture surface alone (i.e., with no captured anti-DLL4 antibody). […] The equilibrium dissociation constant KD (M) of the reaction between antibodies and the target antigen was then calculated from the kinetic rate constants by the following formula: KD=Koff/Kₒₙ. Binding was recorded as a function of time and kinetic rate constants were calculated.

[6] = target: T5, human DLL4 extracellular domain (human, UniProt Q9NR61 27-529); experiment: SPR (Biacore)
T5 construct: purified recombinant ECD; biotin-labelled or 6xHis-tagged depending on the assay; also called huDLL4 ECD; hu DLL4 ECD
T5 sequence (Q9NR61 27-529 limits assumed): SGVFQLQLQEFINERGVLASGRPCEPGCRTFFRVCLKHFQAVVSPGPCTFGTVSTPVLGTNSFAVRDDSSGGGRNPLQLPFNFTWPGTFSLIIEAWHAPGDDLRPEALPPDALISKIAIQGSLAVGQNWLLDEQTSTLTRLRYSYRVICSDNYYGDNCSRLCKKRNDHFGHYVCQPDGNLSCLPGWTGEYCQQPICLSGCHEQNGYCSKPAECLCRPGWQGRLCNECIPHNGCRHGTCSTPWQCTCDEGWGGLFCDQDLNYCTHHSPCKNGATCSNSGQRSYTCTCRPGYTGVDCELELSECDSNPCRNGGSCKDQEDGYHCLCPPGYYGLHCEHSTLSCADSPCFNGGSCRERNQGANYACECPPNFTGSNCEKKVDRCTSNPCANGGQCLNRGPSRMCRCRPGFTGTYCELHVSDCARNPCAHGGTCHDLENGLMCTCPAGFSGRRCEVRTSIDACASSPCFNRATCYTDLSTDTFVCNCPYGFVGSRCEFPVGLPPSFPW
Protocol: as §4

[7] = target: T6, rat DLL4 extracellular domain (rat, UniProt D3ZHH1 28-530); experiment: SPR (Biacore)
T6 construct: extracellular domain; also called ratDLL4 ECD
T6 sequence (D3ZHH1 28-530): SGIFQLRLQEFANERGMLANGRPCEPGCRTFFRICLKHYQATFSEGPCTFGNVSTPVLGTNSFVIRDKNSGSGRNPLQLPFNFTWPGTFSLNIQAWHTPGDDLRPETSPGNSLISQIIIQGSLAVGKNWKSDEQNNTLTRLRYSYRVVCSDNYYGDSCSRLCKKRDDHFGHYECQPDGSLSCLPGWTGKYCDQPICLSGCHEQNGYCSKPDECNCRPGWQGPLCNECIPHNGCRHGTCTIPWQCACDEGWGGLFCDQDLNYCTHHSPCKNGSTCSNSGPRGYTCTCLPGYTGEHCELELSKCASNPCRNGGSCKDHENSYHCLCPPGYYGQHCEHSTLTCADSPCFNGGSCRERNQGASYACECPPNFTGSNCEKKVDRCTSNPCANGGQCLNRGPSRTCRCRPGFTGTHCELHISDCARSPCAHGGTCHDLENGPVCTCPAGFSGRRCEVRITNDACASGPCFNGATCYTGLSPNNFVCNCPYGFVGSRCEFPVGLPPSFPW
Summary of the method: (§5)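 Purified anti-DLL4 antibodies (1 μg/ml) captured on immobilized goat anti-human Fc, with DLL4 ECD injected as analyte; HBS-EPB running buffer (pH 7.4), 25° C, referenced against capture-only surface. On/off rates from global 1:1 Langmuir fit; KD = Koff/Kon.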

[8] = target: T3, mouse DLL4 extracellular domain; experiment: SPR (Biacore)
Summary of the method: as §5

[9] = target: T1, human DLL4, full length, on cells; experiment: competition FACS: huNotch-1-biotin to DLL4 cells
Protocol: (§6) Notch blocking assay: Briefly, stable cell lines overexpressing cell-surface DLL4 were harvested from tissue culture flasks and re-suspended in phosphate buffered saline (PBS) containing 1% bovine serum albumin and 1 mM CaCl₂ (FACS buffer). HEK293G-DLL4 cells were dispensed into 96-well plate (v-bottom) at 1.5×10⁵ cells/well in FACS buffer. After spinning down cells and discarding the supernatant, 50 μL of purified IgG with appropriate dilution were added to each well, and incubated on ice at 4° C. for 60 minutes, followed by addition of 50 μL/well of Notch1-biotin at 0.2 μg/mL for human DLL4-293G or 2.0 μg/mL for mouse DLL4-293G (1.0 or 0.1 μg/mL final) for an additional 1 hour incubation ice at 4° C. After washing the cells two times with FACS buffer, 50 μL of R-phycoerythrin-conjugated streptavidin (1:150 dilution in FACS buffer) (Jackson ImmunoResearch, West Grove, Pa., Cat.#016-110-084) were added. Following an incubation on ice (4° C., 60 minutes), cells were washed three times and resuspended in FACS buffer. Fluorescence was measured using a Becton Dickinson FACSCalibur-HTS (Becton Dickinson, San Jose, Calif.). Data were analyzed using Graphpad Prism software, and IC₅₀ values were reported as the concentration of antibody to achieve 50% reduction of Notch1 bound to DLL4 expressing cells. […]

mouse DLL4 on cells [10] = target: T2, mouse DLL4 on cells; experiment: competition FACS: huNotch-1-biotin to DLL4 cells
Protocol: as §6

[11] = target: T3, mouse DLL4 extracellular domain; experiment: binding ELISA, DLL4 ECD
[12] = target: T5, human DLL4 extracellular domain; experiment: binding ELISA, DLL4 ECD
[13] = target: T5, human DLL4 extracellular domain; experiment: competition ELISA: biotin-DLL4 ECD to coated huNotch-1
Protocol: as §2, §3

mouse DLL4 on cells [14] = target: T2, mouse DLL4 on cells; experiment: FACS on cells expressing mouse DLL4
[15] = target: T5, human DLL4 extracellular domain; experiment: SPR (Biacore); remark: listed apart in the source
[16] = target: T3, mouse DLL4 extracellular domain; experiment: competition ELISA vs Notch-1
[17] = target: T5, human DLL4 extracellular domain; experiment: competition ELISA vs Notch-1

Binder	EC50 [1]	EC50 (mouse DLL4 on cells [2])	Notch activation Inhibition (IC50, nM), huDLL4 cell/Notch reporter cells [3]	IC50 [4]	Kd [5]	koff [5]	kon [5]	Kd [6]	koff [6]	kon [6]	binding result [7]	Kd [8]	koff [8]	kon [8]	IC50 [9]	IC50 (mouse DLL4 on cells [10])	EC50 [12]	IC50 [13]	EC50 [11]	other results
B1	> 50 nM	2.1 nM	2.7 nM	19.8 nM	11.6 nM	0.0012 s⁻¹	110000 M⁻¹ s⁻¹	10.3 nM	0.0012 s⁻¹	120000 M⁻¹ s⁻¹	no binding	1.3 nM	9e-05 s⁻¹	70000 M⁻¹ s⁻¹	205 nM	1.6 nM				
B2	1.2 nM		0.5 nM		0.4 nM	9.8e-05 s⁻¹	260000 M⁻¹ s⁻¹	0.3 nM	0.00011 s⁻¹	400000 M⁻¹ s⁻¹	no binding				1.7 nM		0.06 nM	3.63 nM		binding result [11]: no binding; binding result (mouse DLL4 on cells [14]): no binding
B3	2.3 nM	0.7 nM		3.36 nM	< 617 nM		40000 M⁻¹ s⁻¹	484 nM	0.07 s⁻¹	140000 M⁻¹ s⁻¹		135 nM	0.0135 s⁻¹	100000 M⁻¹ s⁻¹	5.5 nM	3.8 nM	0.12 nM	5.39 nM	0.14 nM	
B4	34.8 nM	0.8 nM	2.9 nM	0.79 nM	8.1 nM	0.00093 s⁻¹	110000 M⁻¹ s⁻¹	5.8 nM	0.0011 s⁻¹	190000 M⁻¹ s⁻¹	no binding	23 nM	0.0029 s⁻¹	130000 M⁻¹ s⁻¹	8.4 nM	0.8 nM	0.06 nM	0.78 nM	0.11 nM	Kd [15]: 6 nM; IC50 [16]: 1.1 nM; IC50 [17]: 0.5 nM
